Assays:
[1] = tested on: human cord blood cells (CD34-positive cells); settings: with or without TPO treatment; single administration; cited from earlier work
[2] = tested on: mouse bone marrow; settings: TPO administered to TPO-knockout mice; cited from earlier work
[3] = tested on: human cord blood-derived CD34-positive cells; test: Engraftment number of different human blood cell lineages in bone marrow of mice transplanted with human cord blood-derived hematopoietic stem cells (Example 1); type: in vivo, NOD.CB17-Prkdc<scid>/J mice
Description: Engraftment of transplanted hematopoietic stem cells in the bone marrow is required in hematopoietic stem cell transplantation. The present invention provides agents which comprise an agonist for the TPO receptor (c-mpl) as an active ingredient for enhancing the engraftment of transplanted CD34-positive hematopoietic cells in the bone marrow. The engraftment of transplanted CD34-positive hematopoietic cells (CD34-positive hematopoietic stem cells and CD34-positive hematopoietic precursor cells) in the bone marrow can be promoted by administering the agents of the present invention. The presence or absence, or the degree of engraftment of transplanted CD34-positive hematopoietic cells in the bone marrow (the engraftment rate of transplanted CD34-positive hematopoietic cells in the bone marrow) can be assessed, for example, by determining the absolute number of human CD34-positive hematopoietic cells in the bone marrow of NOD/SCID mice to which human hematopoietic cells are transplanted. Human cells can be identified among the mouse bone marrow cells by using a fluorescent-labeled, human CD34-specific antibody for detection. Specifically, the engraftment rate of transplanted CD34-positive hematopoietic cells in the bone marrow can be determined by the following procedures. First, NOD.CB17-Prkdc/J mice, to which human cord blood-derived CD34-positive cells have been transplanted, are euthanized three weeks after transplantation. The right and left femurs are collected, and then their epiphyseal portions are removed by scissors. Bone marrow cells are flushed out using a 26G-needle syringe and collected. After washing with IMDM containing 2% FBS, 5 ml of erythrocyte lysis solution is added, and the mixture is allowed to stand for five minutes. The mixture is centrifuged and supernatant is removed. Then, the precipitate is suspended in 2 ml of IMDM containing 2% FBS. The suspension is filtered through a 70-μm membrane to prepare a bone marrow cell suspension (2 ml/two femurs for each mouse). The cell suspension is aliquoted into 100-μl samples, and the cells are stained for 15 minutes with a fluorescent-labeled, human CD34-specific antibody and PI (final concentration: 2 μg/ml). After washing, 50 μl of Flow-Count fluorescent particles are added, and the engraftment number of human CD34-positive cells is determined using the EPICS XL cell analyzer. The determination may be performed, for example, according to Application Note 5: “Determination of the absolute number of cells using Flow-Count” (Beckman Coulter, Inc.). Likewise, the absolute number of different human blood cell lineages in the bone marrow can be determined using a variety of detection antibodies. The absolute number of human cells contained in the two femurs is represented by the following formula:
Absolute number of human cells=determined value (cells/μl)×1/2(Flow-Count amount added (50)/sample amount added (100))×2000 (2 ml/two femurs/mouse)
Mice used were acclimatized six-week-old male NOD.CB17-Prkdc/J. After systemic irradiation with 3.0 Gy of X-ray, an anti-asialo-GM1 antibody was intraperitoneally administered to the mice once every ten days from the day of irradiation. 5×10^4 human cord blood-derived CD34-positive cells were transplanted to each mouse at the caudal vein one day after irradiation. From the day after transplantation, the sc(Fv)2 antibody of SEQ ID NO: 73 was administered every day for ten consecutive days, and after that, administration was conducted for five days followed by two days of break. The doses were: 0.25 mg/5 ml/kg in the morning, and 2 mg/5 ml/kg in the evening. The antibody was subcutaneously administered at eight-hour intervals, twice a day for three weeks in total (n=10). 20 mmol/l citric acid buffer containing 0.02% Tween 80 was administered as a vehicle in the same way as the sc(Fv)2 antibody of SEQ ID NO: 73. The bone marrow was collected after three weeks transplantation, and FACS analysis was performed using EPIX XL. […]

[4] = tested on: human CFU-Meg colonies; test: Number of human CFU-Meg colonies in bone marrow of mice transplanted with human cord blood-derived hematopoietic stem cells (Example 2); type: in vivo, NOD.CB17-Prkdc<scid>/J mice; settings: vs vehicle-administered group; s.c. 0.25 + 2 mg/kg per day, three weeks; bone marrow cells cultured 13 days in MegaCult-C; FIG. 2
Procedure: Mice used were acclimatized six-week-old male NOD.CB17-Prkdc/J. After systemic irradiation with 3.0 Gy of X-ray, an anti-asialo-GM1 antibody was intraperitoneally administered to the mice once every ten days from the day of irradiation. 5×10^4 human cord blood-derived CD34-positive cells were transplanted to each mouse at the caudal vein one day after irradiation. From the day after transplantation, the sc(Fv)2 antibody of SEQ ID NO: 73 was administered every day for ten consecutive days, and then after that, administration was conducted for five days followed by two days of break. The antibody was subcutaneously administered at 0.25 mg/5 ml/kg in the morning and 2 mg/5 ml/kg in the evening, at eight-hour intervals, twice a day for three weeks in total (n=10). 20 mmol/l citric acid buffer containing 0.02% Tween 80 was administered as a vehicle in the same way as the sc(Fv)2 antibody of SEQ ID NO: 73. Bone marrow cells were collected after three weeks transplantation. Bone marrow cells contained in the mouse femurs were cultured with the sc(Fv)2 antibody of SEQ ID NO: 73 for 13 days using MegaCult-C (StemCell Technologies). The number of human CFU-Meg colonies was determined by counting CD41-positive colonies containing 50 or more cells under a light microscope.

[5] = tested on: human cord blood-derived CD34-positive cells; test: Dose-dependent effect on engraftment number of different human blood cell lineages in bone marrow of transplanted mice (Example 3); type: in vivo, NOD.CB17-Prkdc<scid>/J mice; settings: high, medium, low dose s.c. for ten days, FIG. 3
Procedure: Mice used were acclimatized six-week-old male NOD.CB17-Prkdc/J. After systemic irradiation with 3.0 Gy of X-ray, an anti-asialo-GM1 antibody was intraperitoneally administered to the mice on the day of irradiation and eight days after irradiation. 5×10^4 human cord blood-derived CD34-positive cells were transplanted to each mouse at the caudal vein the day after irradiation. The sc(Fv)2 antibody of SEQ ID NO: 73 was administered every day for ten consecutive days from the day after the irradiation, according to the following three dosages (subcutaneous administration; n=9 for each group).
High-dose group (0.25 mg/kg in the morning, an eight-hour interval, and 2 mg/kg in the evening, per day)
Medium-dose group (0.05 mg/kg in the morning, an eight-hour interval, and 0.2 mg/kg in the evening, per day)
Low-dose group (0.01 mg/kg in the morning, an eight-hour interval, and 0.02 mg/kg in the evening, per day)
The dose was adjusted so that the minimum drug concentration in peripheral blood during the administration period is 50 ng/ml, 10 ng/ml, or 2 ng/ml in the high-, medium-, or low-dose group, respectively.
20 mmol/l sodium citrate/150 mM NaCl buffer (pH 6.5) containing 0.02% Tween 80 was administered as a vehicle in the same way as the sc(Fv)2 antibody of SEQ ID NO: 73. Bone marrow cells were collected after two weeks transplantation, and FACS analysis was performed. The absolute number of human cells was determined using Flow-Count (Beckman).

[6] = summary statement of the inventors' findings
[7] = vs vehicle group, s.c. 0.25 + 2 mg/kg per day, three weeks, FIG. 1
[8] = two weeks after transplantation

For “TPO: cytokine that promotes growth and differentiation of megakaryocytic lineage cells; ligand for c-mpl”, the “frequencies of CD34 positive cells” value [1] is listed as “did not differ significantly” and the “mouse bone marrow transplantation efficiency” value [2] is listed as “increased”.

B1: VB22B sc(Fv)2: agonistic minibody against the TPO receptor; amino acid sequence of SEQ ID NO: 14 (protein, listed as Mus musculus)
chain: MEWPLIFLFLLSGTAGVHSQVQLQQSGPELVKPGASVKISCKASGYAFTNSWMNWVKQRPGKGLEWIGRIYPGDGETIYNGKFRVKATLTADKSSSTAYMDISSLTSEDSAVYFCARGYDDYSFAYWGQGTLVTVSAGGGGSGGGGSGGGGSDIVMTQAAPSIPVTPGESVSISCRSSKSLLHSNGNTYLYWFLQRPGQSPQLLIYRMSNLASGVPDRFSGSGSGTAFTLRISRVEAEDVGVYYCMQHIEYPFTFGSGTKLEIKGGGGSGGGGSGGGGSQVQLQQSGPELVKPGASVKISCKASGYAFTNSWMNWVKQRPGKGLEWIGRIYPGDGETIYNGKFRVKATLTADKSSSTAYMDISSLTSEDSAVYFCARGYDDYSFAYWGQGTLVTVSAGGGGSGGGGSGGGGSDIVMTQAAPSIPVTPGESVSISCRSSKSLLHSNGNTYLYWFLQRPGQSPQLLIYRMSNLASGVPDRFSGSGSGTAFTLRISRVEAEDVGVYYCMQHIEYPFTFGSGTKLEIK
For B1, the “engraftment of transplanted human cord blood-derived hematopoietic stem cells (CD34-positive hematopoietic cells) in the bone marrow” value [3, 6] was “enhanced the engraftment”, the “growth of multilineage blood precursor cells” value [3, 6] was “induced significant growth” and the “human megakaryocyte-specific differentiation (increase of megakaryocytic cells)” value [3, 6] was “induced human megakaryocyte-specific differentiation”.

B2: sc(Fv)2 antibody of SEQ ID NO: 73: humanized sc(Fv)2 antibody comprising the amino acid sequence of SEQ ID NO: 73; c-mpl agonist (protein, listed as Homo sapiens)
chain: MDWTWRFLFVVAAATGVQSQVQLVQSGPEVKKPGASVKVSCKASGYTFTNSWMNWVRQRPGKGLEWIGRIYPGDGETIYNGKFRVRVTITADESTSTAYMQLSSLRSEDTAVYYCARGYDDYSFAYWGQGTTVTVSSGGGGSGGGGSGGGGSDIVMTQSPLSLPVTPGEPASISCRSSKSLLHSNGNTYLYWFLQKPGQSPQLLIYRMSNLASGVPDRFSGSGSGTDFTLKISRVEAEDVGVYYCMQHIEYPFTFGQGTKLEIKGGGGSGGGGSGGGGSQVQLVQSGPEVKKPGASVKVSCKASGYTFTNSWMNWVRQRPGKGLEWIGRIYPGDGETIYNGKFRVRVTITADESTSTAYMQLSSLRSEDTAVYYCARGYDDYSFAYWGQGTTVTVSSGGGGSGGGGSGGGGSDIVMTQSPLSLPVTPGEPASISCRSSKSLLHSNGNTYLYWFLQKPGQSPQLLIYRMSNLASGVPDRFSGSGSGTDFTLKISRVEAEDVGVYYCMQHIEYPFTFGQGTKLEIK
In the case of B2, the “number of CFU-Meg colonies in the bone marrow” value [4] is reported as “statistically significantly increased”, the “number of human CD34-positive cells in right and left femurs” value ([3]; vs vehicle group, s.c. 0.25 mg/kg morning + 2 mg/kg evening, three weeks, bone marrow three weeks after transplantation, FIG. 1) is reported as “statistically significantly increased” and the “number of CD19-positive cells in right and left femurs” value [3, 7] is reported as “statistically significantly increased”. For the same molecule, the “number of CD33-positive cells in right and left femurs” value [3, 7] was “statistically significantly increased”, the “number of CD41-positive cells in right and left femurs” value [3, 7] was “statistically significantly increased” and the “number of CD45-positive cells in right and left femurs” value [3, 7] was “statistically significantly increased”. The “number of CD34-positive cells in right and left femurs” value ([5]; bone marrow two weeks after transplantation) was “increase in a dose-dependent manner”, the “number of CD19-positive cells in right and left femurs” value [5, 8] was “increase in a dose-dependent manner” and the “number of CD33-positive cells in right and left femurs” value [5, 8] was “increase in a dose-dependent manner”. For the same molecule, the “number of CD38-positive cells in right and left femurs” value [5, 8] was “increase in a dose-dependent manner”, the “number of CD41-positive cells in right and left femurs” value [5, 8] was “increase in a dose-dependent manner” and the “number of CD45-positive cells in right and left femurs” value [5, 8] was “increase in a dose-dependent manner”.

Source: patent US20100040600A1, “Agents for Promoting the Growth of Hematopoietic Stem Cells” (CHUGAI SEIYAKU KABUSHIKI KAISHA, priority 2006, published 2010)
